Reference: paper PMC8881573, “Inhibition of SRP-dependent protein secretion by the bacterial alarmone (p)ppGpp” (Nature Communications, 2022)

Target: ribosomal protein uL29 (B. subtilis (endogenous in the B. …, UniProt P12873 1-66))
Test: cryo-EM structure; (Bs)SRP pre-incubated with pppGpp, tenfold molar excess over MifM-stalled RNCs, 10 min at room temperature
Conditions: both partners purified

binding result: binds
B1: recombinant (Bs)SRP (Ffh and 6S RNA) (natural protein)
chain: MAFEGLADRLQQTISKIRGKGKVSEQDVKEMMREVRLALLEADVNFKVVKDFVKKVSERAVGQDVMKSLTPGQQVIKVVQEELTELMGGEESKIAVAKRPPTVIMMVGLQGAGKTTTSGKLANLLRKKHNRKPMLVAADIYRPAAIKQLETLGKQLDMPVFSLGDQVSPVEIAKQAIEKAKEEHYDYVILDTAGRLHIDHELMDELTNVKEIANPEEIFLVVDSMTGQDAVNVAKSFNEQLGLTGVVLTKLDGDTRGGAALSIRAVTNTPIKFAGLGEKLDALEPFHPERMASRILGMGDVLTLIEKAQASVDEDKAKELEQKMRTMSFTLDDFLEQLGQVRNMGPLDELLQMMPGAGKMKGLKNIQVDEKQLNHVEAIIKSMTVLEKEQPDIINASRRKRIAKGSGTSVQEVNRLLKQFDEMKKMMKQMTNMSKGKKKGFKLPFM
notes: Ffh, B. subtilis, full length; Ribonucleoprotein: the protein stood with the 6S SRP RNA and with pppGpp or GMPPNP; also called full-length (Bs)Ffh; not shown: 6xHis, N-terminal, cleaved
